Assay results published in the supplement of paper PMC10567573.

B1: ETS2 (parent)
chain: TSGKRYVYRFVCDLQNLLGFTPEE
B2: PPEF2 (parent)
chain: FIPSSHNDRDFLTRIFTEDRFAQD

Variants of: B1
Experiment: protein stability index of a GFP-peptide fusion (GPS, HEK-293T) (PSI 1-6); higher = more stable
Conditions: c terminus: a fixed tail appended
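Also: lentivirally expressed fusions sorted by FACS into six bins by GFP to DsRed ratio, PSI derived from sequencing read proportions per bin multiplied by bin number.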

Protein stability index: each site, then its substitutions
V11: I 2.64; P 2.85; E 2.61; W 2.14; K 2.15; L 2.82; D 2.59; T 2.36; C 3.14; R 1.57; A 3.07; M 2.85; Q 1.94; Y 2.14; F 2.56; S 2.02; N 2.67; H 2.07
Y6: E 1.4; T 2.3; I 4.21; R 2.31; Q 1.86; D 1.52; C 2.26; H 2.41; G 1.35; N 1.52; A 1.43; F 2.91; P 2.59; L 3.25; S 2.26; V 2.61
C12: K 2.98; W 2.21; Y 1.77; P 2.05; V 2.39; H 2.31; I 1.96; N 3.4; L 2.03; D 1.72; S 2.9; F 1.68; R 2.58; G 2.04; E 1.76; T 2.17; Q 2.57; A 1.92; M 1.25
G3: Y 2.09; I 2.11; H 2.83; S 2.36; P 1.5; A 2.96; N 2.77; K 1.7; Q 2.31; D 3.19; T 1.86; V 1.86; C 1.81; M 2.08; R 2; W 1.65; E 1.78; F 2.33; L 1.65
D13: A 2.67; C 2.22
K4: R 3.33; N 2.34; L 2.8; V 2; T 2.17; Q 1.7; H 2.06; P 1.83; F 2.34; E 1.72; D 2.24; W 2.72; I 1.36; C 2.58; A 2.29; Y 3.33; M 1.74; G 2.54
T1: I 2.6; K 1.66; W 2.1; Y 1.71; M 1.86; P 1.94; S 2.4; E 2.38; N 1.82; H 2.12; G 2.08; Q 1.94; C 1.7; R 2.29
S2: L 3; C 1.64; V 1.83; P 2.25; E 2.33; K 2.29; G 2.02; A 1.74; I 3.22; M 2.6; D 2.89; Q 1.85; W 4.44; F 2.74; H 2.62; N 3.49; R 1.77
V7: D 1.46; N 1.25; F 2.25; A 1.29; S 2.83; K 2.3; P 1.84; H 2.04; L 2.22; E 1.3; W 2.61; T 2.57; R 1.03; Q 1.98; M 3.69
R5: G 3.53; E 1.69; N 3.24; I 3.19; Y 2.88; F 3.19; D 2.05; V 1.72; S 2.87; P 1.52; A 2.44; K 3.18
R9: S 1.92; F 1.06; D 1.66; K 1.85; N 1.77; P 2.48; L 1.48; G 1.58; Y 1.79; H 1.65; W 1.96; E 1.78; I 1.68; V 2.4; M 3; Q 1.72; A 1.45; T 2.15; C 1.53
F10: M 2.06; A 2.02; L 1.8; S 3.37; K 3.16; R 3.5; W 2.42; C 2.06; E 2.75; N 3.32; G 2.57; H 2.04; T 2.26; I 2.02; Q 2.7; Y 3.17; P 2.59; D 3.9
Y8: F 1.55; R 2.23; L 1.75; G 2.15; C 1.35; S 2.23; D 2.78; T 2.29; P 2.28; E 2.67; W 2.01; K 2.11; M 2.93; V 2.5; I 2.56; H 2.15; Q 2.02; A 2.12; N 3.26

Variants of: B2
Experiment: as above
Conditions: c terminus: a fixed tail appended

Protein stability index: each site, then its substitutions
R20: I 1.32; C 2.1; D 2.42; G 1.69; T 1.47; Y 2.37; L 2.05; E 1.81; W 2.54; M 1.39; A 2.05; S 2.65; K 2.11; F 2.24; P 2.41; V 1.99; Q 2.15; H 3.22; N 2.07
D24: R 2.19; T 1.52; A 2.61; E 1.95; C 1.75; H 3.06; I 2.99; V 2.79; Y 1.9; W 2.63; S 2.93; N 1.62; L 2.2; M 1.94; K 1.99; Q 1.27; P 1.73; F 2.83; G 2.13
D19: P 1.99; S 2.51; I 2.76; R 1.8; Q 1.68; C 2.12; V 2.14; F 1.77; L 1.96; K 2.44; M 3.16; N 1.57; T 2.8; Y 1.79; G 2.46; W 1.99; H 1.54; A 3.2; E 2.32
F21: G 1.92; Q 1.98; D 2.52; L 2.27; Y 2.27; R 1.75; N 2.54; S 1.65; V 1.64; W 2.09; A 1.59; E 1.81; I 1.74; M 1.87; H 1.87; C 1.81; P 2.02; T 1.75; K 1.84
A22: S 1.63; Q 2.15; K 3.16; E 2.2; P 1.95; V 2.56; R 2.16; T 1.93; W 3.33; Y 1.61; M 1.8; I 1.78; D 2.56; L 2; C 1.95; H 1.83; G 1.89; F 2.07; N 2.59
E18: I 3.03; R 2.16; W 2.25; Y 1.54; N 2.12; K 2.47; H 3.19; V 2.51; T 2.27; S 2.18; L 2.19; M 2.96; Q 1.71; P 2.98
Q23: K 2.33; A 1.96; I 1.99; N 2.68; M 2.09; H 2.18; F 2.44; S 2.35; G 1.89; Y 2.84; D 1.72; V 2.15; R 3.08; P 3.1; C 2.27; E 2.06; W 2.55; L 2.06; T 3.01
